Paper doi:10.1101/2025.07.31.667873 (bioRxiv, 2025)

Molecular target: SF3B5 (human (endogenous in K562), UniProt Q9BWJ5 1-86)
Assay: cryo-EM structure

B1: TAF6L (natural protein)
chain: MSEREERRFVEIPRESVRLMAESTGLELSDEVAALLAEDVCYRLREATQNSSQFMKHTKRRKLTVEDFNRALRWSSVEAVCGYGSQEALPMRPAREGELYFPEDREVNLVELALATNIPKGCAETAVRVHVSYLDGKGNLAPQGSVPSAVSSLTDDLLKYYHQVTRAVLGDDPQLMKVALQDLQTNSKIGALLPYFVYVVSGVKSVSHDLEQLHRLLQVARSLFRNPHLCLGPYVRCLVGSVLYCVLEPLAASINPLNDHWTLRDGAALLLSHIFWTHGDLVSGLYQHILLSLQKILADPVRPLCCHYGAVVGLHALGWKAVERVLYPHLSTYWTNLQAVLDDYSVSNAQVKADGHKVYGAILVAVERLLKMKAQAAEPNRGGPGGRGCRRLDDLPWDSLLFQESSSGGGAEPSFGSGLPLPPGGAGPEDPSLSVTLADIYRELYAFFGDSLATRFGTGQPAPTAPRPPGDKKEPAAAPDSVRKMPQLTASAIVSPHGDESPRGSGGGGPASASGPAASESRPLPRVHRARGAPRQQGPGTGTRDVFQKSRFAPRGAPHFRFIIAGRQAGRRCRGRLFQTAFPAPYGPSPASRYVQKLPMIGRTSRPARRWALSDYSLYLPL
binding result: binds
